According to PMC4600334, “Myostatin blockade with a fully human monoclonal antibody induces muscle hypertrophy and reverses muscle atrophy in young and aged mice” (Skeletal Muscle, 2015):

T1: Human myostatin (human, UniProt O14793 267-375)
T1 sequence (looked up): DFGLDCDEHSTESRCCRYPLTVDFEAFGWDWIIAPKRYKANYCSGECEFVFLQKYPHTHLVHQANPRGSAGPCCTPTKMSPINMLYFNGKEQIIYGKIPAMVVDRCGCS

B1: Human growth and differentiation factor 11 (ligand, UniProt O95390 299-407, looked up)
chain: NLGLDCDEHSSESRCCRYPLTVDFEAFGWDWIIAPKRYKANYCSGQCEYMFMQKYPHTHLVQQANPRGSAGPCCTPTKMSPINMLYFNDKQQIIYGKIPGMVVDRCGCS
notes: human growth and differentiation factor 11 (GDF11), purchased from R&D Systems; also called GDF11; GDF-11; source: bought: R&D Systems
B2: Human activin A (ligand, UniProt P08476 311-426, looked up)
chain: GLECDGKVNICCKKQFFVSFKDIGWNDWIIAPSGYHANYCEGECPSHIAGTSGSSLSFHSTVINHYRMRGHSPFANLKSCCVPTKLRPMSMLYYDDGQNIIKKDIQNMIVEECGCS
notes: human activin A (inhibin beta A chain), purchased from R&D Systems; source: bought: R&D Systems
B3: Soluble human ActRIIB-hFc (Fc fusion, UniProt Q13705 19-133, looked up)
chain: SGRGEAETRECIYYNANWELERTNQSGLERCEGEQDKRLHCYASWRNSSGTIELVKKGCWLDDFNCYDRQECVATEENPQVYFCCCEGNFCNERFTHLPEAGGPEVTYEPPPTAP
notes: signal peptide in the construct; extracellular domain (1-133) of the human ActRIIB receptor (ACVR2B), in-frame fusion with human IgG1 Fc-domain; also called ActR2B-hFc; source: produced in Chinese hamster ovary (CHO) cells

Legend:
[1] = molecular target: B3; experiment: SPR; Biacore T200, CM5 chip, 25 °C; ActRIIB-hFc captured through its Fc (32-39 RU) by immobilised goat anti-human Fcγ antibody; ligands injected at 40 to 0.78 nM; HBS-T (10 mM HEPES, 150 mM NaCl, 3 mM EDTA, 0.05 % P20, 10 mg/ml carboxymethyldextran, 0.5 mg/ml BSA, pH 7.4); global fit to a 1:1 model; settings: both partners purified
Human activin A [2] = molecular target: B2; experiment: as above; settings: both partners purified
[3] = molecular target: B1; experiment: cell-based or functional assay
Human activin A [4] = molecular target: B2; experiment: cell-based or functional assay
Human myostatin = molecular target: T1, Human myostatin; experiment: cell-based or functional assay

| Kd [1] [nM] | T1/2 [1] [h] | koff [1] [s⁻¹] | kon [1] [M⁻¹ s⁻¹] | Kd (Human activin A [2]) [nM] | koff (Human activin A [2]) [s⁻¹] | kon (Human activin A [2]) [M⁻¹ s⁻¹] | IC50 of inhibition of Smad2/3 luciferase activity in A204/Smad2/3/Luc cells stimulated with a constant 0.4 nM GDF11 [3] [nM] | IC50 of inhibition of Smad2/3 luciferase activity in A204/Smad2/3/Luc cells stimulated with a constant 0.4 nM activin A (Human activin A [4]) [nM] | IC50 of inhibition of Smad2/3 luciferase activity in A204/Smad2/3/Luc cells stimulated with a constant 1 nM myostatin (Human myostatin) [nM] | Binder |
| --- | --- | --- | --- | --- | --- | --- | --- | --- | --- | --- |
| 0.014 | 1.87 | 0.000103 | 7.38e+06 | – | – | – | – | – | – | B1 |
| – | 2.43 | – | – | – | – | – | – | – | – | B2 |
| – | – | – | – | 0.0866 | 7.94e-05 | 917000 | 0.46 | 1.2 | 0.57 | B3 |
